Experimental findings from the supplement of paper PMC5998384 are described below.

Data set [1] relates to HeLa Kyoto. Description: melting temperature (median over replicates), in situ; higher = more thermally stable.
Data set [2] has as its system HeLa Kyoto. Nature of the data set: thermal stability score vs G1/S (z-score of summed log2 fold changes over temperatures); higher = more thermally stable than in G1/S.
For data set [3], the system named is HeLa Kyoto. Nature of the data set: solubility in G1/S (NP-40 vs SDS abundance) (log2 ratio); higher = more soluble. To be noted: cell cycle stage: G1/S.
Data set [4] deals with HeLa Kyoto. Nature of the data set: solubility change mitosis vs G1/S (difference of NP-40 vs SDS log2 ratios) (log2 ratio difference); higher = more soluble in mitosis.
Setting [5] is: cell cycle stage: early G1 (4.5 h after nocodazole release).
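Throughout, for melting temperature (median over replicates), in situ: HeLa Kyoto cells synchronized by double thymidine or nocodazole block, proteins quantified by TMT10plex mass spectrometry, three independent biological replicates.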
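Throughout, for solubility change mitosis vs G1/S (difference of NP-40 vs SDS log2 ratios): synchronized HeLa Kyoto cells (double thymidine block for G1/S, nocodazole release for mitosis), protein amounts in NP-40 versus SDS lysates quantified by mass spectrometry, three biological replicates.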
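Throughout, for solubility in G1/S (NP-40 vs SDS abundance): HeLa Kyoto cells arrested at G1/S by double thymidine block, proteins quantified by TMT10plex mass spectrometry in mild NP-40 versus SDS extracts, three biological replicates.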
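Throughout, for thermal stability score vs G1/S (z-score of summed log2 fold changes over temperatures): synchronized HeLa Kyoto cells, proteins quantified by TMT10plex mass spectrometry, three biological replicates, mitosis taken 0.5 h after nocodazole release, G1/S directly after double thymidine block.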

Regarding “MPHLPLASFRPPFWGLRHSRGLPRFHSVSTQSEPHGSPISRRNREAKQKRLREKQATLEAEIAGESKSPAESIKAWRPKELVLYEIPTKPGEKKDVSGPLPPAYSPRYVEAAWYPWWVREGFFKPEYQARLPQATGETFSMCIPPPNVTGSLHIGHALTVAIQDALVRWHRMRGDQVLWVPGSDHAGIATQAVVEKQLWKERGVRRHELSREAFLREVWQWKEAKGGEICEQLRALGASLDWDRECFTMDVGSSVAVTEAFVRLYKAGLLYRNHQLVNWSCALRSAISDIEVENRPLPGHTQLRLPGCPTPVSFGLLFSVAFPVDGEPDAEVVVGTTRPETLPGDVAVAVHPDDSRYTHLHGRQLRHPLMGQPLPLITDYAVQPHVGTGAVKVTPAHSPADAEMGARHGLSPLNVIAEDGTMTSLCGDWLQGLHRFVAREKIMSVLSEWGLFRGLQNHPMVLPICSRSGDVIEYLLKNQWFVRCQEMGARAAKAVESGALELSPSFHQKNWQHWFSHIGDWCVSRQLWWGHQIPAYLVVEDHAQGEEDCWVVGRSEAEAREVAAELTGRPGAELTLERDPDVLDTWFSSALFPFSALGWPQETPDLARFYPLSLLETGSDLLLFWVGRMVMLGTQLTGQLPFSKVLLHPMVRDRQGRKMSKSLGNVLDPRDIISGVEMQVLQEKLRSGNLDPAELAIVAAAQKKDFPHGIPECGTDALRFTLCSHGVQAGDLHLSVSEVQSCRHFCNKIWNALRFILNALGEKFVPQPAEELSPSSPMDAWILSRLALAAQECERGFLTRELSLVTHALHHFWLHNLCDVYLEAVKPVLWHSPRPLGPPQVLFSCADLGLRLLAPLMPFLAEELWQRLPPRPGCPPAPSISVAPYPSACSLEHWRQPELERRFSRVQEVVQVLRALRATYQLTKARPRVLLQSSEPGDQGLFEAFLEPLGTLGYCGAVGLLPPGAAAPSGWAQAPLSDTAQVYMELQGLVDPQIQLPLLAARRYKLQKQLDSLTARTPSEGEAGTQRQQKLSSLQLELSKLDKAASHLRQLMDEPPAPGSPEL [VARS2]”, the values for the melting temperature in the data set with HeLa Kyoto [1] (cell cycle stage: G1/S) and in the data set on HeLa Kyoto [1] (cell cycle stage: mitosis) were 52 °C and 52.1 °C, respectively. The results for the thermal stability score in the data set with HeLa Kyoto [2] (setting [5]) and in the data set with HeLa Kyoto [2] (cell cycle stage: mitosis) were 0.335 and 0.452, respectively. In addition, the “solubility in G1/S (log2)” value in the data set on HeLa Kyoto [3] was -0.0605. Besides, the “solubility change mitosis (log2)” value in the data set with HeLa Kyoto [4] is 0.0161.
Turning to “MESAIAEGGASRFSASSGGGGSRGAPQHYPKTAGNSEFLGKTPGQNAQKWIPARSTRRDDNSAANNSANEKERHDAIFRKVRGILNKLTPEKFDKLCLELLNVGVESKLILKGVILLIVDKALEEPKYSSLYAQLCLRLAEDAPNFDGPAAEGQPGQKQSTTFRRLLISKLQDEFENRTRNVDVYDKRENPLLPEEEEQRAIAKIKMLGNIKFIGELGKLDLIHESILHKCIKTLLEKKKRVQLKDMGEDLECLCQIMRTVGPRLDHERAKSLMDQYFARMCSLMLSKELPARIRFLLQDTVELREHHWVPRKAFLDNGPKTINQIRQDAVKDLGVFIPAPMAQGMRSDFFLEGPFMPPRMKMDRDPLGGLADMFGQMPGSGIGTGPGVIQDRFSPTMGRHRSNQLFNGHGGHIMPPTQSQFGEMGGKFMKSQGLSQLYHNQSQGLLSQLQGQSKDMPPRFSKKGQLNADEISLRPAQSFLMNKNQVPKLQPQITMIPPSAQPPRTQTPPLGQTPQLGLKTNPPLIQEKPAKTSKKPPPSKEELLKLTETVVTEYLNSGNANEAVNGVREMRAPKHFLPEMLSKVIILSLDRSDEDKEKASSLISLLKQEGIATSDNFMQAFLNVLDQCPKLEVDIPLVKSYLAQFAARAIISELVSISELAQPLESGTHFPLFLLCLQQLAKLQDREWLTELFQQSKVNMQKMLPEIDQNKDRMLEILEGKGLSFLFPLLKLEKELLKQIKLDPSPQTIYKWIKDNISPKLHVDKGFVNILMTSFLQYISSEVNPPSDETDSSSAPSKEQLEQEKQLLLSFKPVMQKFLHDHVDLQVSALYALQVHCYNSNFPKGMLLRFFVHFYDMEIIEEEAFLAWKEDITQEFPGKGKALFQVNQWLTWLETAEEEESEEEAD [EIF4G2]”, the figures for the melting temperature in the data set on HeLa Kyoto [1] (cell cycle stage: G1/S) and in the data set with HeLa Kyoto [1] (cell cycle stage: mitosis) were 48.4 °C and 48.3 °C, respectively. The results for the thermal stability score in the data set with HeLa Kyoto [2] (setting [5]) and in the data set on HeLa Kyoto [2] (cell cycle stage: mitosis) were 1.01 and 3.88, respectively. Further, the “solubility in G1/S (log2)” value with HeLa Kyoto [3] came to 0.402. In addition, the “solubility change mitosis (log2)” value in the data set on HeLa Kyoto [4] is 0.0198.
With “MVLIKEFRVVLPCSVQEYQVGQLYSVAEASKNETGGGEGIEVLKNEPYEKDGEKGQYTHKIYHLKSKVPAFVRMIAPEGSLVFHEKAWNAYPYCRTIVTNEYMKDDFFIKIETWHKPDLGTLENVHGLDPNTWKTVEIVHIDIADRSQVEPADYKADEDPALFQSVKTKRGPLGPNWKKELANSPDCPQMCAYKLVTIKFKWWGLQSKVENFIQKQEKRIFTNFHRQLFCWIDKWIDLTMEDIRRMEDETQKELETMRKRGSVRGTSAADV [PITPNB]”, the figures for the melting temperature in the data set with HeLa Kyoto [1] (cell cycle stage: G1/S) and in the data set on HeLa Kyoto [1] (cell cycle stage: mitosis) were 52.9 °C and 53.4 °C, respectively. Moreover, the thermal stability score is 2.34 with HeLa Kyoto [2] (setting [5]) and 2.14 in the data set on HeLa Kyoto [2] (cell cycle stage: mitosis). For the same sequence, the “solubility in G1/S (log2)” value in the data set on HeLa Kyoto [3] amounted to 0.199. Further, the “solubility change mitosis (log2)” value with HeLa Kyoto [4] was -0.0681.
As to “MEPLAAYPLKCSGPRAKVFAVLLSIVLCTVTLFLLQLKFLKPKINSFYAFEVKDAKGRTVSLEKYKGKVSLVVNVASDCQLTDRNYLGLKELHKEFGPSHFSVLAFPCNQFGESEPRPSKEVESFARKNYGVTFPIFHKIKILGSEGEPAFRFLVDSSKKEPRWNFWKYLVNPEGQVVKFWKPEEPIEVIRPDIAALVRQVIIKKKEDL [GPX8]”, the melting temperature with HeLa Kyoto [1] (cell cycle stage: G1/S) stood at 52.8 °C; in the data set with HeLa Kyoto [1] (cell cycle stage: mitosis) it was 52.3 °C. Further, the thermal stability score with HeLa Kyoto [2] (setting [5]) worked out at 3.63; in the data set on HeLa Kyoto [2] (cell cycle stage: mitosis) it was 4.95. Further, in the data set with HeLa Kyoto [3], the “solubility in G1/S (log2)” value was determined as 0.0659. Also, the “solubility change mitosis (log2)” value in the data set on HeLa Kyoto [4] is -0.208.
As for “MAEAHQAVAFQFTVTPDGIDLRLSHEALRQIYLSGLHSWKKKFIRFKNGIITGVYPASPSSWLIVVVGVMTTMYAKIDPSLGIIAKINRTLETANCMSSQTKNVVSGVLFGTGLWVALIVTMRYSLKVLLSYHGWMFTEHGKMSRATKIWMGMVKIFSGRKPMLYSFQTSLPRLPVPAVKDTVNRYLQSVRPLMKEEDFKRMTALAQDFAVGLGPRLQWYLKLKSWWATNYVSDWWEEYIYLRGRGPLMVNSNYYAMDLLYILPTHIQAARAGNAIHAILLYRRKLDREEIKPIRLLGSTIPLCSAQWERMFNTSRIPGEETDTIQHMRDSKHIVVYHRGRYFKVWLYHDGRLLKPREMEQQMQRILDNTSEPQPGEARLAALTAGDRVPWARCRQAYFGRGKNKQSLDAVEKAAFFVTLDETEEGYRSEDPDTSMDSYAKSLLHGRCYDRWFDKSFTFVVFKNGKMGLNAEHSWADAPIVAHLWEYVMSIDSLQLGYAEDGHCKGDINPNIPYPTRLQWDIPGECQEVIETSLNTANLLANDVDFHSFPFVAFGKGIIKKCRTSPDAFVQLALQLAHYKDMGKFCLTYEASMTRLFREGRTETVRSCTTESCDFVRAMVDPAQTVEQRLKLFKLASEKHQHMYRLAMTGSGIDRHLFCLYVVSKYLAVESPFLKEVLSEPWRLSTSQTPQQQVELFDLENNPEYVSSGGGFGPVADDGYGVSYILVGENLINFHISSKFSCPETDSHRFGRHLKEAMTDIITLFGLSSNSKK [CPT1A]”, the melting temperature in the data set on HeLa Kyoto [1] (cell cycle stage: G1/S) was determined as 50 °C; with HeLa Kyoto [1] (cell cycle stage: mitosis) it was 50.1 °C. Besides, the results for the thermal stability score with HeLa Kyoto [2] (setting [5]) and in the data set with HeLa Kyoto [2] (cell cycle stage: mitosis) were 5.3 and 4.57, respectively. For the same sequence, the “solubility in G1/S (log2)” value in the data set on HeLa Kyoto [3] was -0.177. Besides, the “solubility change mitosis (log2)” value in the data set on HeLa Kyoto [4] is -0.0899.
